Positions count from the first letter of the chain named. Names and notes keep the numbering of the source.
Key:
Format in all cases: biochemical
[1] = Validation of generalist properties: oxidation of diclofenac by lyophilized P450-BM3 variant, UPLC-MS; details: [Diclofenac] = 1 mM; for TON: TON = [substrate]*% conversion/[P450]; for FIOPC (A12): fold improvement over parent MCYP-1.2-A12
Summary of the method: (§1)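 Lyophilized lysate of E. coli-expressed P450-BM3 variant (stock standardized to 12 μM heme) was incubated 24 h at 30 °C with 1 or 2 mM substrate, 1.0 mM NADP+, 25 mM glucose, 0.5 mg/mL glucose dehydrogenase and 5% DMSO in 100 mM potassium phosphate. Acetonitrile-quenched samples were analyzed by UPLC-MS (positive ESI).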

[2] = Validation of generalist properties: oxidation of gefitinib by lyophilized P450-BM3 variant, UPLC-MS; details: [Gefitinib] = 1 mM; for TON: TON = [substrate]*% conversion/[P450]; for FIOPC (A12): fold improvement over parent MCYP-1.2-A12
Summary of the method: as §1

[3] = Validation of generalist properties: oxidation of imatinib by lyophilized P450-BM3 variant, UPLC-MS; details: [Imatinib] = 1 mM; for TON: TON = [substrate]*% conversion/[P450]; for FIOPC (A12): fold improvement over parent MCYP-1.2-A12
Summary of the method: as §1

[4] = Validation of generalist properties over the four substrates screened
Description: For the production of lyophilized protein powders, LB agar plates supplemented with chloramphenicol (30 μg/mL) were streaked with E. coli containing a desired B. megaterium P450-BM3 variant in an IPTG-inducible vector. The plates were grown at 37° C. for 16 hrs before single clones were selected to inoculate a 15 mL Falcon™ tube (Fisher) containing TB media (3 mL) supplemented with chloramphenicol (30 μg/mL). The tube was shaken at 200 rpm, 30° C., and 85% humidity for 20-24 h to grow the cultures to saturation. Then, 2.5 mL of the overnight culture was used to inoculate sterile 1 L flasks containing TB medium (250 mL) supplemented with chloramphenicol (30 μg/mL), trace element solution (as described above), and 0.05 g/L ammonium iron (III) citrate. After being shaken at 250 rpm, 30° C., and 85% humidity to an OD600 of 0.8-1.2, P450 expression was induced by addition of IPTG (500 uM) and the heme precursor 5-aminolevulinic acid (5-ALA) to a final concentration of 500 uM. The cultures were grown for additional 20-24 hours and centrifuged in pre-weighed 250 mL centrifuge bottles for 20 minutes at 4000 rpm, 4° C. The supernatants were discarded, and the centrifuge bottles containing cell pellets were weighed. The pellets were resuspended in 50 mM potassium phosphate buffer with 2 mM DTT, pH 8.0 (5 mL of buffer per gram of cell pellet). The cells were lysed using a microfluidizer homogenizer, and the suspensions of cells and lysate were collected in sterile 50 mL centrifuge tubes. The samples were centrifuged for 30 minutes at 10,000 rpm, 4° C. The clarified lysate was collected into a plastic petri plate and frozen at −80° C. prior to lyophilization. The enzyme-containing lysates were lyophilized using standard methods known in the art.
Enzyme stocks (˜12 μM) were prepared by dissolving ˜20 mg of each enzyme in 100 mM potassium phosphate buffer, pH 8.0 (1 mL). The concentration of each enzyme stock solution was determined by the UV-visible absorption spectroscopy (after centrifugation to remove particulates) and diluted to standardize at 12 μM heme protein. Substrate solutions were prepared by dissolving each substrate in DMSO to reach a final concentration of 20 mM or 40 mM. Reaction mix (235 μL) followed by enzyme solution (50 μL) was added to the plates. The substrate stock solution was added to the enzyme solutions (15 μL at the two different concentrations). Each reaction contained 100 mM potassium phosphate, 1.0 mM NADP+, 25 mM glucose, 0.5 mg/mL glucose dehydrogenase, 5% DMSO and substrate at 1 or 2 mM. Loratadine, imatinib, and gefitinib (See, FIG. 1) were selected as substrates in addition to diclofenac to validate improved BM3 variants. The reactions were shaken at 450 rpm at 30° C. over 24 hours. All reactions were diluted with acetonitrile to a final concentration of 0.5 mM substrate. The plates were then centrifuged at 3,000 g for 1 hour at 20° C. The supernatant was diluted 1:1 with acetonitrile, filtered using a 0.4 micron filter, and analyzed by UPLC-MS.
For UPLC-MS analysis, the quenched and filtered reactions were transferred to 96-well HTP plates for analysis by UPLC on a Waters Acquity H-class system equipped with an autosampler. 1 uL of quenched sample was injected onto an Acquity UPLC HSS T3 column, 100 Å, (1.8 um; 2.1×100 mm). […] Column eluent was monitored by PDA (200-600 nm) prior to MS analysis in positive ESI mode (desolvation temperature 350° C., 3.25 kV spray voltage, cone voltage 25V). […]

[5] = Validation of generalist properties: oxidation of loratadine by lyophilized P450-BM3 variant, UPLC-MS; details: [Loratadine] = 1 mM; for TON: TON = [substrate]*% conversion/[P450]; for FIOPC (A12): fold improvement over parent MCYP-1.2-A12
Summary of the method: as §1

B1: Variant 16: P450-BM3 variant of SEQ ID NO: 6: K32R; C48S; Y52F; G115R; L216Y; D232H; E349K; M491A; T577A; E619D; A627S; D722S (protein)
chain: MTIKEMPQPKTFGELKNLPLLNTDKPVQALMRIADELGEIFKFEAPGSVTRFLSSQRLIKEACDESRFDKNLSQALKFARDFLGDGLFTSWTHEINWKKAHNILLPSFSQQAMKRYHAMMVDIAVQLVQKWERLNADEHIEVSEDMTRLTLDTIGLCGFNYRFNSFYRDQPHPFIISMVRALDEVMNKLQRANPDDPAYDENKRQCQEDIKVMNDYVDKIIADRKARGEQSHDLLTQMLNGKDPETGEPLDDGNISYQIITFLIAGHETTSGLLSFALYFLVKNPHVLQKVAEEAARVLVDPVPSYKQVKQLKYVGMVLNEALRLWPTAPAFSLYAKEDTVLGGEYPLKKGDEVMVLIPQLHRDKTIWGDDVEEFRPERFENPSAIPQHAFKPFGNGQRACIGQQFALHEATLVLGMMLKHFDFEDHTNYELDIKETLTLKPEGFVVKAKSKKIPLGGIPSPSTEQSAKKVRKKAENAHNTPLLVLYGSNAGTAEGTARDLADIAMSKGFAPQVATLDSHAGNLPREGAVLIVTASYNGHPPDNAKQFVDWLDQASADEVKGVRYSVFGCGDKNWAATYQKVPAFIDETLAAKGAENIADRGEADASDDFEGTYEEWRDHMWSDVASYFNLDIENSEDNKSTLSLQFVDSAADMPLAKMHGAFSTNVVASKELQQPGSARSTRHLEIELPKEASYQEGDHLGVIPRNYEGIVNRVTARFGLSASQQIRLEAEEEKLAHLPLAKTVSVEELLQYVELQDPVTRTQLRAMAAKTVCPPHKVELEALLEKQAYKEQVLAKRLTMLELLEKYPACEMKFSEFIALLPSIRPRYYSISSSPRVDEKQASITVSVVSGEAWSGYGEYKGIASNYLAELQEGDTITCFISTPQSEFTLPKDPETPLIMVGPGTGVAPFRGFVQARKQLKEQGQSLGEAHLYFGCRSPHEDYLYQEELENAQSEGIITLHTAFSRMPNQPKTYVQHVMEQDGKKLIELLDQGAHFYICGDGSQMAPAVEATLMKSYADVHQVSEADARLWLQQLEEKGRYAKDVWAG
modifications: P450_BM3
notes: C48S; Y52F; G115R; L216Y; D232H; E349K; M491A; T577A; E619D; A627S; D722S
In the case of B1, the “% Conv.” value [1] is reported as “++++ (15.01-20.00)”, the TON [1] is reported as “‡‡‡‡ (10000-50000)” and the “FIOPC (A12)” value [1] is reported as “* (0.0-3.0)”. For the same molecule, the “% Conv.” value [2] was “++++ (15.01-20.00)”, the TON [2] was “‡‡‡‡ (10000-50000)” and the “FIOPC (A12)” value [2] was “**** (10.01-15.00)”. For the same molecule, the “% Conv.” value [3] was “++++ (15.01-20.00)”, the TON [3] was “‡‡‡‡ (10000-50000)” and the “FIOPC (A12)” value [3] was “**** (10.01-15.00)”. The “performance (% conversion at 1 mM substrate loading) over the substrates screened, in words” value [4] was “improved and significant activity for three out of four substrates screened”, the “% Conv.” value [5] was “+ (0-5.00)” and the TON [5] was “‡ (0-1000)”. The “FIOPC (A12)” value [5] was “* (0.0-3.0)”.

B2: Variant 17: P450-BM3 variant of SEQ ID NO: 6: K32R; C48S; Y52F; I95P; Q111R; G115R; I176V; L216Y; D232H; E349T; M491A; T577A; E619D; D722S (protein)
chain: B1 chain with I95P, Q111R, I176V, K349T, S627A
modifications: P450_BM3
notes: C48S; Y52F; I95P; Q111R; G115R; I176V; L216Y; D232H; E349T; M491A; T577A; E619D; D722S
With B2 the “% Conv.” value [1] was “++++ (15.01-20.00)”, the TON [1] was “‡‡‡‡ (10000-50000)” and the “FIOPC (A12)” value [1] was “* (0.0-3.0)”. For the same molecule, the “% Conv.” value [2] was “++++ (15.01-20.00)”, the TON [2] was “‡‡‡‡ (10000-50000)” and the “FIOPC (A12)” value [2] was “*** (5.01-10.0)”. The “% Conv.” value [3] was “++++ (15.01-20.00)”, the TON [3] was “‡‡‡‡ (10000-50000)” and the “FIOPC (A12)” value [3] was “**** (10.01-15.00)”. The “performance (% conversion at 1 mM substrate loading) over the substrates screened, in words” value [4] was “improved and significant activity for three out of four substrates screened”, the “% Conv.” value [5] was “+ (0-5.00)” and the TON [5] was “‡ (0-1000)”. The “FIOPC (A12)” value [5] was “* (0.0-3.0)”.

B3: SEQ ID NO: 6: P450-BM3 parental backbone from the commercially available MCYP panel (MCYP-0343; Codexis) (protein)
chain: MTIKEMPQPKTFGELKNLPLLNTDKPVQALMKIADELGEIFKFEAPGCVTRYLSSQRLIKEACDESRFDKNLSQALKFARDFLGDGLFTSWTHEINWKKAHNILLPSFSQQAMKGYHAMMVDIAVQLVQKWERLNADEHIEVSEDMTRLTLDTIGLCGFNYRFNSFYRDQPHPFIISMVRALDEVMNKLQRANPDDPAYDENKRQCQEDIKVMNDLVDKIIADRKARGEQSDDLLTQMLNGKDPETGEPLDDGNISYQIITFLIAGHETTSGLLSFALYFLVKNPHVLQKVAEEAARVLVDPVPSYKQVKQLKYVGMVLNEALRLWPTAPAFSLYAKEDTVLGGEYPLEKGDEVMVLIPQLHRDKTIWGDDVEEFRPERFENPSAIPQHAFKPFGNGQRACIGQQFALHEATLVLGMMLKHFDFEDHTNYELDIKETLTLKPEGFVVKAKSKKIPLGGIPSPSTEQSAKKVRKKAENAHNTPLLVLYGSNMGTAEGTARDLADIAMSKGFAPQVATLDSHAGNLPREGAVLIVTASYNGHPPDNAKQFVDWLDQASADEVKGVRYSVFGCGDKNWATTYQKVPAFIDETLAAKGAENIADRGEADASDDFEGTYEEWREHMWSDVAAYFNLDIENSEDNKSTLSLQFVDSAADMPLAKMHGAFSTNVVASKELQQPGSARSTRHLEIELPKEASYQEGDHLGVIPRNYEGIVNRVTARFGLDASQQIRLEAEEEKLAHLPLAKTVSVEELLQYVELQDPVTRTQLRAMAAKTVCPPHKVELEALLEKQAYKEQVLAKRLTMLELLEKYPACEMKFSEFIALLPSIRPRYYSISSSPRVDEKQASITVSVVSGEAWSGYGEYKGIASNYLAELQEGDTITCFISTPQSEFTLPKDPETPLIMVGPGTGVAPFRGFVQARKQLKEQGQSLGEAHLYFGCRSPHEDYLYQEELENAQSEGIITLHTAFSRMPNQPKTYVQHVMEQDGKKLIELLDQGAHFYICGDGSQMAPAVEATLMKSYADVHQVSEADARLWLQQLEEKGRYAKDVWAG
modifications: P450_BM3
With B3 the “% Conv.” value [1] was “++ (5.01-10.00)”, the TON [1] was “‡‡ (1001-5000)” and the “% Conv.” value [2] was “++ (5.01-10.00)”. The TON [2] was “‡‡ (1001-5000)”, the “% Conv.” value [3] was “+ (0-5.00)” and the TON [3] was “‡‡ (1001-5000)”. For the same molecule, the “performance (% conversion at 1 mM substrate loading) over the substrates screened, in words” value [4] was “low activity for each substrate screened”, the “% Conv.” value [5] was “+ (0-5.00)” and the TON [5] was “‡ (0-1000)”.

Source: US10704030B2, “P450-BM3 variants with improved activity” (Codexis, Inc., priority 2015, dated 2020)
